From publication PMC12489035, “RABGAP1 is a sensor that facilitates the sorting and processing of amyloid precursor protein” (The EMBO Journal, 2025) come the findings set out here.

The target in assay [1] is T1, GST fused to the APP cytosolic tail mutant FFE689-91AAA (UniProt P05067-4 649-695, FFE689-91AAA).
T1 construct: amyloid precursor protein (APP), cytosolic tail, residues 649-695; numbers count on: APP isoform 695; also called FFE689-9AAA; source: T7 express E. coli; clarified lysate loaded on glutathione-Sepharose 4B beads and washed
T1 chain (looked up): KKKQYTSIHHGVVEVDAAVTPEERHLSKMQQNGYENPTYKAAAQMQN
Put plainly: pull-down; GST-APP tail WT, tail mutants or GST only on glutathione-Sepharose beads, incubated overnight at 4 °C with pre-cleared HEK293T lysate; eluted with 1.5 M NaCl; eluates immunoblotted for the hits; N = 3. As to conditions: one partner purified. (Immunoblotting shows a protein as a band on a membrane.)

The target in assay [2] is T2, His-tagged PTB domain of RABGAP1.
T2 chain: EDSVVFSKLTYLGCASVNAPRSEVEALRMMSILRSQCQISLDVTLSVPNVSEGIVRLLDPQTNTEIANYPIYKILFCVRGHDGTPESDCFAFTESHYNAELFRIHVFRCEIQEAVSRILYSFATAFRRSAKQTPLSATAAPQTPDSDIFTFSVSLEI
Put plainly: ITC; APP peptides titrated into about 100 μM His-PTB of RABGAP1 in 2.4 μl injections at 20 °C; 100 mM Tris pH 7.4, 300 mM NaCl, 1 mM TCEP; Nano ITC; three independent runs for the WT peptide. As to conditions: both partners purified. (In general: In ITC the heat of successive injections is recorded.)

B1: RABGAP1 (natural protein)
chain: not shown
notes: also called GAPCenA; TBC1D11; source: endogenous, HEK293T lysate
With B1, in assay [1], the “fold change of binding against the WT tail” value is around 3 fold.

B2: WT APP tail peptide starting from the MQQ sequence at position 677 (peptide, UniProt P05067-4 677-695, looked up)
peptide: MQQNGYENPTYKFFEQMQN
notes: amyloid precursor protein (APP), cytosolic tail from M677 (MQQ...); numbers count on: APP isoform 695; The peptide probably runs to the C-terminus of APP695 (residue 695); also called APPwt; WT APP peptide
With B2, in assay [2], the Kd was around 61 µM and the stoichiometry N – broadly, the number of molecules, sites or subunits per partner or assembly – was found to be 1.
